Test results reported in US20080057063A1 (published 2008).
Where two headings read alike, the source gives them in different places.

Key:
[1] = target: T1, α5β1 integrin (on K562 cells) (UniProt P08648 42-1049; P05556 21-798, limits assumed); experiment: cell-based or functional assay
[2] = target: T2, human αVβ6 integrin on cells (human, UniProt P06756 31-1048; P18564 22-788); experiment: FMAT, HEK 293 cells overexpressing αVβ6, supernatant
T2 construct: whole, on cells; Heterodimer on transfected cells (HEK 293, K562, 293T) or on αVβ6-positive tumour lines (HT29, Detroit-562); also called αVβ6 on HEK 293, K562, 293T-αVβ6, HT29, Detroit-562 cells

soluble αVβ6 = target: T3, soluble αVβ6 (human, UniProt P06756 31-992; P18564 22-709); experiment: Biacore, mAb captured on anti-human IgG, soluble αVβ6 injected, 1:1 fit
T3 construct: extracellular domain; also called soluble αVβ6 protein; soluble antigen
Method: The Biacore analysis was performed as follows. A high-density goat α human IgG antibody surface over two CM5 Biacore chips was prepared using routine amine coupling. Each mAb was diluted in degassed HBS-P running buffer containing 100 μg/ml BSA, 1 mM MgCl₂, and 1 mM CaCl₂ to a concentration of approximately 1 μg/mL. […] A 4-minute wash step at 50 μL/min followed to stabilize the mAb baseline.
A 10-minute dissociation followed each antigen injection. The antigen samples were prepared in the HBS-P running described above. All samples were randomly injected in triplicate with several mAb capture/buffer inject cycles interspersed for double referencing. […] A flow rate of 50 μL/min was used for all antigen injection cycles.
The data were then fit to a 1:1 interaction model with the inclusion of a term for mass transport using CLAMP.

[3] = target: T2, human αVβ6 integrin on cells; experiment: cell-based or functional assay
[4] = target: T2, human αVβ6 integrin on cells; experiment: cell-based or functional assay; remark: listed apart in the source
cynomolgus αVβ6 on cells = target: T4, cynomolgus αVβ6 on cells (cynomolgus, UniProt A0A2K5WCD3 31-1048; A0A2K5TZ36 22-787); experiment: FACS, HEK-293 transfected with cynomolgus αV and β6
T4 construct: whole, on cells; also called macaque αVβ6; Mac AVB6
Method: Cross-reactivity of the antibody-containing supernatants to macaque αVβ6 was tested on the supernatants using FACS analysis on HEK-293 cells transiently transfected with cynomolgus αV and cynomolgus β6.
HEK-293 cells were transiently transfected with cynomolgus αV and cynomolgus β6. After 48 hours, the cells were collected and resuspended in FACS buffer to reach a final concentration of approximately 50,000 cells in 100 μL.
Approximately 100,000 cells total, comprising a 50:50 mix of CFSE-labeled A375M cells and transfected 293 cells, were used in each reaction as follows. 100 μL of CFSE-labeled A375M cells and 100 μL of 293 cells were dispensed into a V-bottom plate. The cells in the plate were pelleted at 1500 rpm for 3 minutes, and then resuspended in 100 μL FACS buffer. The pelleting step was repeated, and the FACS buffer supernatant was removed. The harvested antibody-containing supernatants, or control primary antibodies were added in a volume of 50 μL and the cells were resuspended. […] The plate was incubated on ice for 45 minutes, after which 100 μL FACS buffer was added to dilute the primary antibody. The cells were then pelleted by centrifuging at 1500 rpm for 3 minutes, and the pellet was resuspended in 100 μL FACS buffer. The pelleting step was repeated, and the FACS buffer supernatant was removed. Cells were then resuspended in the appropriate secondary antibody (5 μg/ml) with 7AAD dye (10 μg/ml), and stained on ice for 7 minutes. Then 150 μL of FACS buffer was added and the cells were pelLeted at 1500 rpm for 3 minutes, after which the cells were washed in 100 μL FACS buffer, pelleted, and then resuspended in 250 μL buffer and added to FACS tubes. Samples were analyzed on a high throughput FACS machine and analyzed using Cell Quest Pro software.

[5] = target: T5, α4β1 integrin (on J6.77 cells) (UniProt P13612 34-1032; P05556 21-798, limits assumed); experiment: cell-based or functional assay
[6] = target: T1, α5β1 integrin (on K562 cells); experiment: cell-based or functional assay; remark: listed apart in the source
[7] = target: T6, human αV on parental A375M cells, which express αVβ3 and αVβ5, but not αVβ6 (human, UniProt P06756 31-1048); experiment: FACS, parental A375M cells (αVβ3, αVβ5)
T6 construct: whole, on cells; Two heterodimers (αVβ3, αVβ5) on one cell line; also called αVβ3 or αVβ5 integrins
Method: For this assay, cross-reactivity was tested on the supernatants using FACS analysis on parental A375M cells, which express αVβ3 and αVβ5, but not αVβ6.
The assays were performed as follows. […] The cells were then pelleted, the supernatant discarded, and resuspended in FACS buffer and incubated for 30 minutes at 37° C. Cells were then washed twice with FACS buffer and resuspended in a final volume of 100 μL FACS buffer per well.
Approximately 100,000 cells total, comprising a 50:50 mix of CFSE-labeled A375M cells and transfected 293 cells, were used in each reaction as follows. 100 μL of CFSE-labeled A375M cells and 100 μL of 293 cells were dispensed into a V-bottom plate. The cells in the plate were pelleted at 1500 rpm for 3 minutes, and then resuspended in 100 μL FACS buffer. The pelleting step was repeated, and the FACS buffer supernatant was removed. The harvested antibody-containing supernatants, or control primary antibodies were added in a volume of 50 μL and the cells were resuspended. […] The plate was incubated on ice for 45 minutes, after which 100 μL FACS buffer was added to dilute the primary antibody. The cells were then pelleted by centrifuging at 1500 rpm for 3 minutes, and the pellet was resuspended in 100 μL FACS buffer. The pelleting step was repeated, and the FACS buffer supernatant was removed. Cells were then resuspended in the appropriate secondary antibody (5 μg/ml) with 7AAD dye (10 μg/ml), and stained on ice for 7 minutes. Then 150 μL of FACS buffer was added and the cells were pelLeted at 1500 rpm for 3 minutes, after which the cells were washed in 100 μL FACS buffer, pelleted, and then resuspended in 250 μL buffer and added to FACS tubes.

[8] = target: T5, α4β1 integrin (on J6.77 cells); experiment: cell-based or functional assay; remark: listed apart in the source
[9] = target: T6, human αV on parental A375M cells, which …; experiment: cell-based or functional assay
[10] = target: T2, human αVβ6 integrin on cells; experiment: cell-based or functional assay; remark: listed apart in the source
[11] = target: T2, human αVβ6 integrin on cells; experiment: FACS, 293T-αVβ6 cells, antibody at 20 ug/ml
Method: (§1) Cells were divided between reactions in a V-bottom 96-well plate (Sarstedt), and the cells in the plate were pelleted at 1500 rpm for 3 minutes, after which the HBSS supernatant was removed. The primary antibody was added at the concentration indicated in Table 19 in a volume of 50 μL, and the cells were resuspended and thereafter incubated on ice for 60 minutes. After incubation, the cells were pelleted by centrifugation at 1500 rpm for 3 minutes, resuspended in 100 μL wash buffer, and then pelleted again. Cells were then resuspended in the appropriate secondary antibody at 2 μg/ml with 10 μg/ml 7AAD, and stained on ice for 7 minutes, after which 150 μL of wash buffer was added, and cells were pelleted at 1500 rpm for 3 minutes and then resuspended in 100 μL of HBSS with 1% BSA. Samples were read on a FACS machine with a HTS attachment and the data was analyzed using Cell Quest Pro software.

[12] = target: T2, human αVβ6 integrin on cells; experiment: FACS, 293T-αVβ6 cells, antibody at 5 ug/ml
Method: as §1

[13] = target: T2, human αVβ6 integrin on cells; experiment: FACS, 293T-αVβ6 cells, antibody at 1.25 ug/ml
Method: as §1

T2 sequence (P06756 31-1048, chain 1 of 2): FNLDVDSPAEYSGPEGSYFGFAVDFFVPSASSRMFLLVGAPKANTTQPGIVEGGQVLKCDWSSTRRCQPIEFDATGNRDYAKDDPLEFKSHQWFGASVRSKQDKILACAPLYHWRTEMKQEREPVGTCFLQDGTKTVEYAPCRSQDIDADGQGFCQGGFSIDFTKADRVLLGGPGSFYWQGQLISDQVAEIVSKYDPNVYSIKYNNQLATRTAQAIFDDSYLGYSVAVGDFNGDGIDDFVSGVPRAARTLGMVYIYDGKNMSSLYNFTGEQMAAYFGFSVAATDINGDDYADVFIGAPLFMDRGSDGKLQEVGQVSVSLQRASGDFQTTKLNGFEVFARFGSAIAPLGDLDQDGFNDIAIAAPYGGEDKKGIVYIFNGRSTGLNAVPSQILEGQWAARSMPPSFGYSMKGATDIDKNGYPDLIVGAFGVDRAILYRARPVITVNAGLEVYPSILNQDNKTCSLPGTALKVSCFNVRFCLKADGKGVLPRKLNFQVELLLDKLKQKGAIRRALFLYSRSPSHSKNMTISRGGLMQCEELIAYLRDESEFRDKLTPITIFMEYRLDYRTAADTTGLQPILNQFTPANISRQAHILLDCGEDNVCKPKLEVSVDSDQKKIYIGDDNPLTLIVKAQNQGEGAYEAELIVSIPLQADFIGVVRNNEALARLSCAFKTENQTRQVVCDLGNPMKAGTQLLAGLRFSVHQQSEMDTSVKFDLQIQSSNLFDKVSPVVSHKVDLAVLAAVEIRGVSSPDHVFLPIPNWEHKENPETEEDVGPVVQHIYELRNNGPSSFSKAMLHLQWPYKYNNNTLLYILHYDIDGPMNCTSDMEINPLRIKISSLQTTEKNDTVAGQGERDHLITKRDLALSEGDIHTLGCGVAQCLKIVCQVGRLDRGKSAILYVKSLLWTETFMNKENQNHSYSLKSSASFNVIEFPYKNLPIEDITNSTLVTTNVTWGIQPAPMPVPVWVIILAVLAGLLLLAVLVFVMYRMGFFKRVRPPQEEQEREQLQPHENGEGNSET
T2 sequence (P18564 22-788, chain 2 of 2): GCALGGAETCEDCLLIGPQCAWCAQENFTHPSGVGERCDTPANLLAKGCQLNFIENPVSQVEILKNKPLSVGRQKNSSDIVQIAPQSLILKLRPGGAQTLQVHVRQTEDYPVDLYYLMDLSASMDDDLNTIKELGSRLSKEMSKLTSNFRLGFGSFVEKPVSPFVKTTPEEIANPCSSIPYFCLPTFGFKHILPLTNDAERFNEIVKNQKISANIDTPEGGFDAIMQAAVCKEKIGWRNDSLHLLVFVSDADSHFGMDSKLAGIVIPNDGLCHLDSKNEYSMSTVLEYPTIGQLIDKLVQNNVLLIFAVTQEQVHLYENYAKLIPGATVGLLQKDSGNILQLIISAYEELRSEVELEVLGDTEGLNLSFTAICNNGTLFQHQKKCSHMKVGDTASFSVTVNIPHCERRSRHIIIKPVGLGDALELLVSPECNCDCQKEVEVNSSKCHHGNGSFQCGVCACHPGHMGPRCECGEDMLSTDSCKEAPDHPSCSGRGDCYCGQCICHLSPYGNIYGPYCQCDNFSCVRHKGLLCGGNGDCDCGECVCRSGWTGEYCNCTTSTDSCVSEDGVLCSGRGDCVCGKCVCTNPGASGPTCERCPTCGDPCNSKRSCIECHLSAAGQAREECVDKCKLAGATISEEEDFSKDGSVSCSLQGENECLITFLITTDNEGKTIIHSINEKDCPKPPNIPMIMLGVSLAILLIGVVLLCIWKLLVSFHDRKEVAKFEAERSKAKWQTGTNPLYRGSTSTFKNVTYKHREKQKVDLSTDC
T6 sequence (P06756 31-1048 A375M): as the sequence (P06756 31-1048, chain 1 of 2) above, with A345M counted along it
T1 sequence (P08648 42-1049 limits assumed, chain 1 of 2): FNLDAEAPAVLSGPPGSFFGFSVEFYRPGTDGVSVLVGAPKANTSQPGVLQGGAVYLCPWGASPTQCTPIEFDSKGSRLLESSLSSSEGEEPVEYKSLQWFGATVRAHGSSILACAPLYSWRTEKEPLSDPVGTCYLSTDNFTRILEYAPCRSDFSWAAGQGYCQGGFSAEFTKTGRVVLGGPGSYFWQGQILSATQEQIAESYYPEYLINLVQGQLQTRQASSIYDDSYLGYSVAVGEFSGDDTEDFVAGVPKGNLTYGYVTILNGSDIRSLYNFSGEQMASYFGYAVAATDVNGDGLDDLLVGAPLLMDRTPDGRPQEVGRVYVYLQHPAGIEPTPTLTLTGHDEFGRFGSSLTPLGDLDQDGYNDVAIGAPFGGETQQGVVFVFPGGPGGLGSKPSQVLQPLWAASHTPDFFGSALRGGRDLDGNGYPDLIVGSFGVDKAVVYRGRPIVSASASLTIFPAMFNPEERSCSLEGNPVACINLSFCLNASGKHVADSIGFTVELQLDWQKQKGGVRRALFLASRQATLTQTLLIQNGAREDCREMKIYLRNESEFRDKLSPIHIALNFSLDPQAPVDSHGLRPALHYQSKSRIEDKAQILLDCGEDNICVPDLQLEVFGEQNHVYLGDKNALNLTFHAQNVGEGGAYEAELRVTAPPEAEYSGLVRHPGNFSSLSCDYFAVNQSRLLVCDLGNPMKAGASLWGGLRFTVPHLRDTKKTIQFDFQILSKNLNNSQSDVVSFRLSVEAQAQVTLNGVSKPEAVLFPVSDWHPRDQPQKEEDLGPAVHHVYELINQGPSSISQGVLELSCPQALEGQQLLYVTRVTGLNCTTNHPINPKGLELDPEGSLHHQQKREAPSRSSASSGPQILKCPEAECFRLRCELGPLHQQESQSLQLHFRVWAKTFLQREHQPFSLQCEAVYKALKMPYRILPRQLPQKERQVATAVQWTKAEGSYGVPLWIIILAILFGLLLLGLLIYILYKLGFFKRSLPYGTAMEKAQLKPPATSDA
T1 sequence (P05556 21-798 limits assumed, chain 2 of 2): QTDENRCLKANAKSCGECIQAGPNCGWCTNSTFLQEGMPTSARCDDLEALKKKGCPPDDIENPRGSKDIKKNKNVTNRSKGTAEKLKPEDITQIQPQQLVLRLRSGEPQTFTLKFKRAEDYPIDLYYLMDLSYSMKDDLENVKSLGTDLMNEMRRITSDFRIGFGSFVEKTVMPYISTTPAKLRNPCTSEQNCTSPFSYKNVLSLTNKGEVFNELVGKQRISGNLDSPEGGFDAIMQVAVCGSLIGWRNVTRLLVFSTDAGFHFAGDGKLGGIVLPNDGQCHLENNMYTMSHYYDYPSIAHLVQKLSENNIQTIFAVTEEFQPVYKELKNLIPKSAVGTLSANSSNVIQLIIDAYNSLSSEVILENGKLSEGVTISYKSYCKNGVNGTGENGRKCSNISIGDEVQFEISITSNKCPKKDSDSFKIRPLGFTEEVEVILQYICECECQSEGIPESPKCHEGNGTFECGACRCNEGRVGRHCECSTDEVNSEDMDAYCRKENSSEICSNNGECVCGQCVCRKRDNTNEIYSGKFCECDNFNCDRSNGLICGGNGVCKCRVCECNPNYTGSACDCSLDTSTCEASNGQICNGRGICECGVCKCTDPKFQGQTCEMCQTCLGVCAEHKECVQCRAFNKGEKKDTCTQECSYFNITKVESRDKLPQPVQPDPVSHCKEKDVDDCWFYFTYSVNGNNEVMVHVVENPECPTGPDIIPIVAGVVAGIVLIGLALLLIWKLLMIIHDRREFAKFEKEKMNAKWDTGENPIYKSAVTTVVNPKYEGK

Binder	FMAT Count [2]	FMAT FL1 [2]	FMAT FL1 × Count [2]	Assay 1 % Inhibition (HT29 adhesion to TGFβLAP) [3]	Assay 2 % Inhibition (HT29 adhesion to TGFβLAP) [3]	Average % Inhibition (HT29 adhesion to TGFβLAP) [3]	Estimated IC50, n = 1 (HT29 adhesion to TGFβLAP) [4]	Estimated IC50, n = 2 (HT29 adhesion to TGFβLAP) [4]	Estimated IC50, n = 3 (HT29 adhesion to TGFβLAP) [4]	GeoMean (cynomolgus αVβ6 on cells)	Percent Inhibition (J6.77 adhesion to CS-1 peptide of fibronectin, 5 ug/ml) [5]	% Cells Shifted [7]	GeoMean [7]	other results
sc 254 (antibody, V domains shown) VH: QVQLQESGPGLVKPSQTLSLTCTVSGGSISSGGYYWSWIRQHPGKGLEWIGYIYYSGSTYYNPSLKSRVTISVDTSKNQFSLKLSSVTAADTAMYYCARYRGPAAGRGDFYYFGMDVWGQGTTVTVSS VL: DIVMTQTPLSLSVTPGQPASIFCKSSQSLLNSDGKTYLCWYLQKPGQPPQLLIYEVSNRFSGVPDRFSGSGSGTDFTLKISRVEAEDVGVYYCMQGIQLPWAFFGQGTKVEIK	174	9180	1.6e+06	98%	106%	102%	0.063 µg/mL	0.037 µg/mL	0.037 µg/mL	78.5	0%	–	–	Percent Inhibition (K562 adhesion to FN9-10 peptide of fibronectin, 5 µg/ml) [1]: -9%; Kd (soluble αVβ6): 34.9 nM
sc 264 (antibody, V domains shown, RGD in heavy chain CDR3) VH: QVQLQESGPGLVKPSQTLSLTCTVSGGSISSGGYYWSWIRQHPGKGLEWIGYIYYSGRTYNNPSLKSRVTISVDTSKNQFSLKLSSVTAADTAVYYCARVATGRGDYHFYAMDVWGQGTTVTVSS VL: SYELTQPSSVSVSPGQTARITCSGDVLAKKSARWFHQKPGQAPVLVIYKDSERPSGIPERFSGSSSGTTVTLTISGAQVEDEAAYYCYSAADNNLVFGGGTKLTVL	–	–	–	–	–	–	–	–	–	–	-8%	46%	2.35	Percent Inhibition (K562 adhesion to FN9-10 peptide of fibronectin, 5 µg/ml) [1]: -4%; % Inhibition (K562 adhesion to fibronectin) [6]: 3%; Percent Inhibition (J6.77 adhesion to CS-1 peptide of fibronectin, 5 ug/ml) [8]: -30%; Percent Inhibition (A375M adhesion to osteopontin peptide, 5 µg/ml) [9]: 3%
sc 298 (antibody, V domains shown) VH: QVQLVESGGGVVQPGRSLRLSCAASGFTFSSYGMHWVRQAPGKGLEWVAVIWYGGSNKYYADSVKGRFTISRDNSKNTLYLQMNSLRAEDTAVYYCARDLAARRGDYYYYGMDVWGQGTTVTVSS VL: SSELTQDPVVSVALGQTVRITCQGDSLRSYYLSWYQQKPGQAPVLVIYGKNNRPSGIPDRFSGSNSGNTASLTITGAQAEDEADYYCNSRDSSGNHLFGGGTKLTVL	102	2140	218000	98%	102%	100%	0.029 µg/mL	0.025 µg/mL	0.033 µg/mL	63.1	-7%	45%	2.14	Percent Inhibition (K562 adhesion to FN9-10 peptide of fibronectin, 5 µg/ml) [1]: 2%; Kd (soluble αVβ6): 21 nM; koff (soluble αVβ6): 0.00118 s⁻¹; kon (soluble αVβ6): 56500 M⁻¹ s⁻¹; Percent Inhibition (A375M adhesion to osteopontin peptide, 5 µg/ml) [9]: 9%; % Cells Shifted (cynomolgus αVβ6 on cells): 53%
sc 188 SDM (antibody, V domains shown, Variable domains only) VH: QVQLQESGPGLVKPSQTLSLTCTVSGGSISSGVYYWTWIRQHPGNGLEWIGYIYYSGSTSYNPSLKSRVTISVDTSKKQFSLKLTSVTAADTAVYYCAREGPLRGDYYYGLDVWGQGTTVTVSS VL: EIVLTQSPGTLSLSPGERATLSCRAGQTISSRYLAWYQQKPGQAPRPLIYGASSRATGIPDRFSGSGSGTDFTLTISRLEPEDFAVYYCQQYGSSPRTFGQGTKVEIK	–	–	–	–	–	–	–	–	–	–	–	–	–	IC50, n = 1 (HT29 adhesion to TGFβLAP) [10]: 0.022 µg/mL; IC50, n = 2 (HT29 adhesion to TGFβLAP) [10]: 0.024 µg/mL; IC50, n = 3 (HT29 adhesion to TGFβLAP) [10]: 0.067 µg/mL; % Inhibition (K562 adhesion to fibronectin) [6]: -8%; Geometric Mean Shift [11]: 6760; Percent Inhibition (J6.77 adhesion to CS-1 peptide of fibronectin, 5 ug/ml) [8]: -6%; Geometric Mean Shift [12]: 6820; Geometric Mean Shift [13]: 4530
sc 161 (antibody, V domains shown) VH: EVQLVQSGAEVKKPGESLKISCKGSGYSFTSYWIGWVRQMPGKGLEWMGIIYPGDSDTRYSPSFQGQVTISADKSISTAYLQWSSLKASDTAMYYCARHGIAAAGFYYYYMDVWGQGTTVTVSS VL: EIVLTQSPDTLSLSPGERASLSCRASQNVNRNYLVWYQQKPGQAPRLLIYGTSNRATGIPDRFSGSGSGTDFTLTISRLEPEDFAVYYCQQCGSLPFTFGPGTKVDIKR	23	725	16700	98%	106%	102%	2.41 µg/mL	0.137 µg/mL	–	33	12%	11%	16.7	% Cells Shifted (cynomolgus αVβ6 on cells): 14%
sc 277 (antibody, V domains shown) VH: EVQLVQSGAEVKKPGESLKISCKGSGYSFPSYWIGWVRQMPGKGLEWMGIIYPGDSDTRYSPSFQGQVTISADKSISTAYLQWSSLKASDTAMYYCARHPMEDGMDVWGQGTTVTVSS VL: SYELTQPPSVSVSPGQTARITCSGDALPKKYAFWYQQKSGQAPVLVIYDDNKRPSGIPERFSGSSSGTMATLTITGAQVEDEADYYCYSTDSSGHHVFGGGTKLTVL	28	382	10700	98%	101%	100%	1.46 µg/mL	0.54 µg/mL	0.72 µg/mL	33.4	-17%	23%	1.86	% Cells Shifted (cynomolgus αVβ6 on cells): 35%
sc 58 (antibody, V domains shown, also called sc 058) VH: not shown VL: SYELTQPPSVSVSPGQTARITCSGDALPKKYAYWYQQKSGQAPVLVIYDDSKRPSGIPERFSGSSSGTMATLTISGAQVEDEADYYCYSTDSSGNHRVFGGGTKLTVL	–	–	–	77%	46%	62%	4.07 µg/mL	2.03 µg/mL	3.26 µg/mL	–	-14%	18%	1.78	–
sc 97 (antibody, V domains shown, also called sc 097) VH: EVQLVQSGAEVKKPGESLKISCKGSGYSFTSYWIGWVRQMPGKGLEWMGIIYPGDSDTRYSPSFQGQVILSADKSISTAYLQWSSLKASDTAMYYCARHDESSGYYYVFDIWGQGTMVTVSS VL: SYELTQPPSVSVSPGQTARITCSGDALPKKYAYWYQQKSGQAPVLVIYEDIKRPSGIPERFSGSSSGTMATLTISGAQVEDEADYYCYSTDSSGNHWVFFGGGTKLTVL	–	–	–	–	–	–	–	–	–	–	-7%	24%	1.84	–
sc 320 (antibody, V domains shown) VH: EVQLVESGGGLVKPGGSLRLSCAASGYTFTNYIMHWVRQAPGKGLEWVSSISISSSYIYYADSVKGRFTISRDNAKNSLYLQMNSLRAEDTAVYYCARDPVPLERRDYYYGMDVWGQGTTVTVSS VL: QSVLTQPPSMSAAPGQKVTISCSGSSSNIGNNYVSWYQQLPGTAPKLLIYDNNKRPSGIPDRFSGSKSGTSATLGITGLQTGDEADYYCGTWDSSLSAGVFGGGTKLTVL	–	–	–	–	–	–	–	–	–	–	-8%	15%	23.2	–
sc 49 (antibody, V domains shown, also called sc 049) VH: QVQLQESGPGLVKPSQTLSLTCTVAGGSIRSGDYYWSWIRQHPGKGLEWIGNIYYSGSTYYNPSLKSRITISVATSRNQFSLKLTSVTAADTAVYYCARGGAITIFGVFDYWGQGTLVTVSS VL: not shown	–	–	–	–	–	–	–	–	–	–	–	20%	1.74	–
sc 374 (antibody, V domains shown) VH: QVQLVESGGGVVQPGRSLRLSCAASGFTFSSYGMHWVRQAPGKGLEWVAVIWYDGSNKYYADSVKGRFTISRDNSKNTLYLQMNSLRAEDTAVYYCARTEGIAARLYYYYGMDVWGQGTTVTVSS VL: not shown	–	–	–	–	–	–	–	–	–	61.8	–	–	2.14	–
